Reference: US10876098B2, “Polynucleotide, host cell and a method to recombinantly produce the protein encoded by said polynucleotide having peroxygenative activity” (CONSEJO SUPERIOR DE INVESTIGACIONES CIENTIFICAS (CSIC), priority 2015, dated 2020)
Numbering of substitutions follows the chain as printed. Names may count otherwise.

Legend:
[1] = target: T1, Agrocybe aegerita peroxygenase AaeUPO1 variant JaWa (PaDa-I + G241D, R257K: V57A, L67F, V75I, G241D, I248V, R257K, F311L), SEQ ID NO: 24 (Cyclocybe aegerita, UniProt B9W4V6, F354L/G284D/I291V/L110F/R300K/V100A/V118I); assay: Kinetic constants, JaWa variant
T1 sequence (B9W4V6 44-371 V100A/L110F/V118I/G284D/I291V/R300K/F354L): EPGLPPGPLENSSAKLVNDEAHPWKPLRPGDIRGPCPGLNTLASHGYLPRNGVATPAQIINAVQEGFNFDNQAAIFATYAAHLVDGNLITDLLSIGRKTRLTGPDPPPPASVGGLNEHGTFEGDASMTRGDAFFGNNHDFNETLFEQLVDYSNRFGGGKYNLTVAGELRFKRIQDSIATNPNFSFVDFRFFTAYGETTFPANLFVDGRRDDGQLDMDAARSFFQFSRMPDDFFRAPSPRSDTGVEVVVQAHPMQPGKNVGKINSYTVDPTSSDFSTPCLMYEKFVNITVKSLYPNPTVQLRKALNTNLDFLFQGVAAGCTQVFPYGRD
Method: In order to calculate the values of Km and kcat, values of Vmax were represented at substrate concentrations and the hyperbole function was adjusted (using SigmaPlot 10.0, wherein the parameter a is equal to kcat and the parameter b, to Km).
Additionally, the kinetic values of the two variants were determined using substrates of both peroxygenase and peroxidase activity (Table 2), as described in the section on materials and methods.

[2] = substrate: CCn1c(=NN=c2sc3cc(S(=O)(=O)O)ccc3n2CC)sc2cc(S(=O)(=O)O)ccc21; assay: purified protein, by the assay type; details: other: 100 mM sodium phosphate/citrate pH 4.0, 2 mM H2O2 (ABTS); pH 4.0
[3] = substrate: OO; assay: purified protein, by the assay type; details: other: H2O2, benzyl alcohol as substrate at saturation, pH 7.0
[4] = substrate: CC(C)NCC(O)COc1cccc2ccccc12; assay: purified protein, by the assay type
[5] = Thermostability assay (T50), culture supernatants, residual activity with ABTS; format: physicochemical; details: culture supernatants; temperature at which the enzyme retains 50% of its activity after 10 minutes of incubation
Method: An individual S. cerevisiae colony was selected with the corresponding clone (grown in a SC drop-out minimal medium plate: 100 mL of 6.7% yeast nitrogen base, 100 mL of 19.2 g/L uracil-free amino acid supplement, 100 mL of 20% glucose, 1 mL of 25 g/L chloramphenicol and ddH2O up to 1,000 mL) was inoculated in 2 mL of selective minimal medium (as in the SC plate medium, but with 20 g of bacto agar and rafinose instead of galactose) and was incubated for 48 hour at 30° C. and 220 RPM. An aliquot of this culture was taken such that, upon inoculating it in 5 mL of new minimal medium, optical density at 600 nm would have a value of 0.25 (optical density, OD600=0.25). This starter was incubated until completing two full growth cycles (between 6 and 8 hours), at which time 1 mL of cells were taken to inoculate 9 mL of expression medium in a 100 mL flask (OD600=0.1). This culture of each clone was incubated for 72 hours at 25° C. and 220 RPM (at peak UPO activity; OD600=25-30), the cells were separated by centrifugation (10 minutes at 4,500 RPM and 4° C.) and supernatant was filtered (using a glass and nitrocellulose filter with a pore size of 0.45 μm). Appropriate dilutions of the supernatants were prepared so that aliquots of 20 μL would give rise to a linear response in kinetic mode. 50 μL of supernatant were used for each point in a temperature gradient created by means of thermocyclator, from 30 to 80° C. After incubating for 10 minutes, the aliquots were cooled in ice for 10 minute and tempered at room temperature for 5 minutes. […] The thermostability values were calculated in accordance with the ratio between the residual activities incubated at different temperatures and the value of initial activity at room temperature. The value of T50 was determined as the value of the temperature at which the protein loses 50% of it initial activity after incubating for 10 minutes.
An individual S. cerevisiae colony was selected with the corresponding clone (grown on a SC drop-out minimal medium plate: 100 mL of 6.7% yeast nitrogen base, 100 mL of 19.2 g/L uracil-free amino acid supplement, 100 mL of 20% glucose, 1 mL of 25 g/L chloramphenicol and ddH2O up to 1,000 mL), was inoculated in 3 mL of selective minimal medium (like the SC plate medium, but with 20 g of bacto agar and rafinose instead of galactose) and incubated for 48 hours at 30° C. and 220 RPM. […] The thermostability values were calculated in accordance with the ratio between the residual activities incubated at different temperatures and the value of initial activity at room temperature. The value of T50 was determined as as the temperature value at which the protein loses 50% of its initial activity after incubating for […].

[6] = Optimum pH for ABTS; format: biochemical
[7] = Optimum pH for naphthalene; format: biochemical
[8] = Naphthalene transformation reaction analysed by HPLC-PDA; format: biochemical
Method: A) Products formed after 15 minutes of reaction stopped with 20 μL of HCl 37% (PaDa-I, black bars; JaWa, grey bars). […] C) and D) Monitoring of the reaction for 270 minutes (without adding HCl) for the PaDa-I (C) and JaWa (D) mutants.
The reactions were analysed by means of chromatography in reverse phase (HPLC). The equipment is composed by a tertiary pump (Varian-Agilent Technologies, USA) coupled to an autosampler (Merck Millipore, MA, USA); an ACE C18 PFP column was used for separation (pentafluorophenyl, 15 cm×4.6 cm) at 45° C. and detection was performed using a photodiode detector (PDA) (Varian-Agilent Technologies, USA). The mobile phase selected was 70% methanol and 30% ddH2O (in both cases with 0.1% of acetic acid) at a flow rate of 0.8 mL/min. The reaction was quantified at 268 nm (based on standard HPLCs). […] For long reaction times, the conditions used were those described earlier but without stopping the reaction with HCl. A sample of 10 μL was injected and analysed at different reaction times (from 1 to 270 minutes).

[9] = Isoelectric point by two-dimensional electrophoresis; format: physicochemical
Method: The analyses were performed using an Autoflex III MALDI-TOF-TOF unit with smartbeam laser (Bruker Daltonics). The samples were evaluated in positive mode. The method was calibrated using BSA with standard, thereby covering a range of 15,000 to 70,000 Da. In order to determine the isoelectric point of the UPO variants, 8 μg of pure enzyme were subjected to two-dimensional electrophoresis. These experiments were carried out at the Proteomic and Genomic Service of the Biological Research Centre (CIB-CSIC, Spain).

[10] = Optimum pH for DMP; format: biochemical
[11] = Turnover with 5′-hydroxypropranolol as substrate, HPLC; format: biochemical; details: 0.03 μM enzyme, 0.4 mM 5′-hydroxypropranolol, 2 mM H2O2, absence of ascorbic acid
Method: FIG. 14 Turnover rates of AaeUPO, JaWa and SoLo. […] The disappearance of the product 5′-hydroxypropranolol can be observed due to the formation of its corresponding quinone by means of the peroxidase activity of the enzyme.
(§1) The reactions were analysed by means of chromatography in reverse phase (HPLC). The equipment was composed of a tertiary pump (Varian-Agilent Technologies, USA) coupled to an autosampler (Merck Millipore, MA, USA); for the separation, a Zorbax Eclipse plus C18 column (15 cm×4.6 cm) at 40° C. was used and the detection was performed using a photodiode detector (PDA) (Varian, Agilent Technologies, USA). The mobile phase selected was a gradient from 10% methanol and 90% ddH2O (in both cases with 0.1% of acetic acid) up to 90% methanol and 10% ddH2O at a flow rate of 0.8 mL/min. The reaction was quantified at 280 nm (based on HPLC standards). […] The standard deviations were less than 5% in all cases.

[12] = Total turnover number (TTN) for synthesis of 5′-hydroxypropranolol from propranolol; format: biochemical; details: 0.03 μM enzyme, propranolol, 2 mM H2O2 added every 10 minutes
Method: FIG. 15 Calculation of the total turnover number (TTN) of AaeUPO and SoLo.
as §1

[13] = other: 100 mM potassium phosphate pH 7.0, 2 mM H2O2 (propranolol)
[14] = other: 100 mM potassium phosphate pH 7.0, 2 mM H2O2 (DMP, propranolol)
[15] = 15 minutes of reaction stopped with HCl, 6.6 nM enzyme, 1 mM naphthalene, 1 mM H2O2

**Q.** For `OO` [H2O2, hydrogen peroxide], which Km ([1]; H2O2, benzyl alcohol as substrate at saturation, pH 7.0) is on record?
**A.** 1250 µM

**Q.** Which “increase in kcat (up to)” value ([1]; summary of advantages, variant not named, matches JaWa vs PaDa-I) does the source give for `CC(C)NCC(O)COc1cccc2c(O)cccc12` (stereo not drawn) [5′-hydroxypropranolol] here?
**A.** up to 3.6 fold

**Q.** For `c1ccc2ccccc2c1` [Naphthalene, naphthalene], which “decrease in Km” value ([1]; JaWa vs PaDa-I, naphthalene) is on record?
**A.** 3 times

B1: Agrocybe aegerita unspecific peroxygenase AaeUPO1 (UPO, EC 1.11.2.1), wild type, SEQ ID NO: 2 (SEQ ID NO: 4 with wild-type signal peptide) (Cyclocybe aegerita) (protein)
chain: T1 sequence (B9W4V6 44-371 V100A/L110F/V118I/G284D/I291V/R300K/F354L) with A57V, F67L, I75V, D241G, V248I, K257R, L311F
**Q.** With B1 as the molecule, how does the Km [2] read?
**A.** 25-0 ± 2.5 μM

**Q.** What about the kcat [2] of the same molecule?
**A.** 221 s⁻¹

**Q.** What about the kcat/Km [2] of the same molecule?
**A.** 8.8e+06 M⁻¹ s⁻¹

**Q.** What about the Km [3] of the same molecule?
**A.** 1,370 ± 162 μM

**Q.** What about the kcat [3] of the same molecule?
**A.** 290 s⁻¹

**Q.** And the kcat/Km [3]?
**A.** 210000 M⁻¹ s⁻¹

**Q.** And the Km [4, 13]?
**A.** 2,239 ± 333 μM

**Q.** And the kcat [4, 13]?
**A.** 150 ± 12 s⁻¹

**Q.** What about the kcat/Km [4, 13] of the same molecule?
**A.** 67000 ± 4800 M⁻¹ s⁻¹

B2: Agrocybe aegerita peroxygenase AaeUPO1 variant SoLo (JaWa + F191S: V57A, L67F, V75I, F191S, G241D, I248V, R257K, F311L), SEQ ID NO: 42 (Cyclocybe aegerita; … (protein)
chain: T1 sequence (B9W4V6 44-371 V100A/L110F/V118I/G284D/I291V/R300K/F354L) with F191S
**Q.** For B2, which Km [3] is on record?
**A.** 1,430 ± 153 μM

**Q.** And the kcat [3]?
**A.** 446 s⁻¹

**Q.** What about the kcat/Km [3] of the same molecule?
**A.** 310000 ± 18000 M⁻¹ s⁻¹

**Q.** And the Km [4, 13]?
**A.** 391 ± 97 µM

**Q.** What about the kcat [4, 13] of the same molecule?
**A.** 497 ± 35 s⁻¹

**Q.** What about the kcat/Km [4, 13] of the same molecule?
**A.** 1.3e+06 ± 20000 M⁻¹ s⁻¹

B3: Agrocybe aegerita peroxygenase AaeUPO1 variant JaWa (PaDa-I + G241D, R257K: V57A, L67F, V75I, G241D, I248V, R257K, F311L), SEQ ID NO: 24 (Cyclocybe aegerita; … (protein)
chain: T1 sequence (B9W4V6 44-371 V100A/L110F/V118I/G284D/I291V/R300K/F354L)
**Q.** With B3 as the molecule, how does the Km [4, 14] read?
**A.** 244 ± 92 µM

**Q.** And the kcat [4, 14]?
**A.** 765 ± 76 s⁻¹

**Q.** What about the kcat/Km [4, 14] of the same molecule?
**A.** 3.1e+06 ± 90000 M⁻¹ s⁻¹

B4: PaDa-I: AaeUPO1 mutant with L67F, I248V, F311L, V75I, V57A and evolved signal peptide, SEQ ID NO: 18; previously published parental (protein)
chain: MKYFPLFPTLVYAVGVVAFPDYASLAGLSQQELDAIIPTLEAREPGLPPGPLENSSAKLVNDEAHPWKPLRPGDIRGPCPGLNTLASHGYLPRNGVATPAQIINAVQEGFNFDNQAAIFATYAAHLVDGNLITDLLSIGRKTRLTGPDPPPPASVGGLNEHGTFEGDASMTRGDAFFGNNHDFNETLFEQLVDYSNRFGGGKYNLTVAGELRFKRIQDSIATNPNFSFVDFRFFTAYGETTFPANLFVDGRRDDGQLDMDAARSFFQFSRMPDDFFRAPSPRSGTGVEVVVQAHPMQPGRNVGKINSYTVDPTSSDFSTPCLMYEKFVNITVKSLYPNPTVQLRKALNTNLDFLFQGVAAGCTQVFPYGRD
**Q.** Which results are given for B4?
**A.** Thermal stability, T50 [5]: 57.6 °C; Optimum pH for ABTS [6]: 4.0; Optimum pH for naphthalene [7]: 6.0; regioselectivity, 1-naphthol [8, 15]: 92%; regioselectivity, 2-naphthol [8, 15]: 8%; time at which formation of the epoxide intermediary reached its maximum ([8]; 270 minute reaction at pH 7.0): ~40 min; production of 1-naphthol ([8]; 270 minutes at pH 7.0 without stopping the reaction): 0.14 mM; total turnover numbers (TTN), 1-naphthol ([8]; calculated using the production value of 1-naphthol after 270 minutes): 20,000 μmoles of product/μmoles of en; regioselectivity against 1-naphthol ([8]; long reaction times, 270 minutes at pH 7.0 without stopping the reaction): 97%; pI [9]: 5.5; Optimum pH for DMP [10]: 6.0

B5: AaeUPO1: unspecific peroxygenase UPO (E.C. 1.11.2.1) of Agrocybe aegerita, wild type, SEQ ID NO: 2 / 4 (protein, listed as Agrocybe aegerita)
chain: B4 chain with A100V, F110L, I118V, V291I, L354F
**Q.** Which “Optimum pH for ABTS” value [6] does the source give for B5 here?
**A.** 4.0

**Q.** And the “Optimum pH for naphthalene” value [7]?
**A.** 6.5

**Q.** And the “5′-hydroxypropranolol maintained without oxidising” value [11]?
**A.** oxidise practically the entire product

**Q.** And the “TTNs, With ascorbic acid” value ([12]; 4 mM ascorbic acid)?
**A.** 14,000

**Q.** What about the “TTNs, Without ascorbic acid” value ([12]; absence of ascorbic acid) of the same molecule?
**A.** 3,000

**Q.** What about the pI [9] of the same molecule?
**A.** 4.9-5.7

**Q.** What about the “Optimum pH for DMP” value [10] of the same molecule?
**A.** 7.0
